According to paper PMC10432815:

What was measured:
medaka Opn5m (medaka) [1] = target: medaka Opn5m (medaka)
medaka Opn5m (medaka) [2] = target: medaka Opn5m (medaka); remark: listed apart in the source

| relative aequorin luminescence (calcium response) after UV light, 293TΔGQ cells cotransfected with OlOpn5m and medaka Gα: against OlGαq, OlGα11a and OlGα11b (medaka Opn5m (medaka) [1]) | relative aequorin luminescence (calcium response) after UV light, ATR-reconstituted OlOpn5m in 293TΔGQ cells: mGα14 against mGαq (medaka Opn5m (medaka) [2]) | Molecule |
| --- | --- | --- |
| 24 fold |  | medaka Gα14a (natural protein) |
| 24 fold |  | medaka Gα11c (natural protein) |
|  | 27 fold | mouse Gα14 (natural protein) MAGCCCLSAEEKESQRISAEIERQLRRDKKDARRELKLLLLGTGESGKSTFIKQMRIIHGSGYSDEDRKGFTKLVYQNIFTAMQAMIRAMDTLRIQYMCEQNKENAQIIREVEVDKVTALSRDQVAAIKQLWLDPGIQECYDRRREYQLSDSAKYYLTDIERIAMPSFVPTQQDVLRVRVPTTGIIEYPFDLENIIFRMVDVGGQRSERRKWIHCFESVTSIIFLVALSEYDQVLAECDNENRMEESKALFRTIITYPWFLNSSVILFLNKKDLLEEKIMYSHLISYFPEYTGPKQDVKAARDFILKLYQDQNPDKEKVIYSHFTCATDTENIRFVFAAVKDTILQLNLREFNLV |
